Molecular target: StWRKY1 (Solanum tuberosum, UniProt Q9LEC7 1-172)
Test: EMSA; shift inhibited by excess unlabelled competitor; poly(dI-dC); EMSA: 20 ul with kit binding buffer (LightShift), 1 ul each of 1 ug/ul poly(dI-dC), 50% glycerol, 1% NP-40, 1 M KCl, 100 mM MgCl2, 200 mM EDTA; 3 ug protein, 20 fmol probe; 25 C, 20 min; pH not stated
Conditions: protein: recombinant; label: 3' biotin; blunt

StWRKY1, sequence (Q9LEC7 entry or part of it): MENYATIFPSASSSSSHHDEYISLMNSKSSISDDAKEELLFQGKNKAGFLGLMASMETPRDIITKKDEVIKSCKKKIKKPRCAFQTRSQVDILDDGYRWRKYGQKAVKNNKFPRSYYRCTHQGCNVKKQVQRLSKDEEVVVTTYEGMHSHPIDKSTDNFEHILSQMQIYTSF

B1: THT promoter W1-box probe (dsDNA)
DNA 1: TCGTCAGAGTTGACCTCCACCAACCA
DNA 2: TGGTTGGTGGAGGTCAACTCTGACGA
binding result: binds

From PMC4765800, “Transcription factor StWRKY1 regulates phenylpropanoid metabolites conferring late blight resistance in potato”
